In patent US20030224521, “Enhanced homologous recombination mediated by lambda recombination proteins” (The Gov. of the USA Secretary of the Department of Health …, published 2003):

T1: lambda Beta (Bet) (Bacteriophage lambda, UniProt P03698 P03698:1-261)
T1 sequence: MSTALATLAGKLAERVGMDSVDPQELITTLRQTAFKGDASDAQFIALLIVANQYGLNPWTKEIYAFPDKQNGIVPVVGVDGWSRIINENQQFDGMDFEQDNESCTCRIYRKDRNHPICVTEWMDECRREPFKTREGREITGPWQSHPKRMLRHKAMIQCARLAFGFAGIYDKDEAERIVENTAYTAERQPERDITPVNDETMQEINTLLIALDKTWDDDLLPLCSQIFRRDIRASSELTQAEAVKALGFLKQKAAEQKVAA

B1: galK 60-mer oligo (ssDNA)
DNA: GCGGTCGGAACCGTATTGCAGCAGCTTTATCATCTGCCGCTGGACGGCGCACAAATCGCG

target: T1, lambda Beta (Bet); assay: cell_activity; HME9, Exo and Gam co-expressed; settings: tags: expressed from pL of defective prophage in E. coli
Experimental: Using the methods described in Examples 2, 3, 5, 10 and 11, lambda operon expression was heat-induced, cells were rendered electroporation-competent, and ssDNA oligonucleotides (200 ng each) were electroporated into E. coli HME9 strain cells. The electroporated ssDNA oligonucleotides included the 70-mer of SEQ ID NO: 11, a 60-mer constructed by removing the last 5 nucleotides from both the 5′ and 3′ ends of SEQ ID NO: 11, and a 50-mer, 40-mer, 30-mer, or 20-mer constructed by removing the last 10, 15, 20, or 25 nucleotides, respectively, from both the 5′ and 3′ ends of SEQ ID NO: 11. As in example 10, the ssDNA oligonucleotides used in this experiment were all designed to restore the galK+ gene upon successful recombination, thereby conferring upon the cell a Gal+ phenotype. Table 7 indicates the number of galK+ recombinants per viable cell, […].

Row | Binder | activity
1 | CCGTATTGCAGCAGCTTTATCATCTGCCGCTGGACGGCGC (ssDNA) [galK 40-mer oligo] | 0.0004 recombinants per viable cell
2 | GCAGCTTTATCATCTGCCGC (ssDNA) [galK 20-mer oligo] | 1e-06 recombinants per viable cell
3 | B1 | 0.0006 recombinants per viable cell
4 | TTGCAGCAGCTTTATCATCTGCCGCTGGAC (ssDNA) [galK 30-mer oligo] | 4.7e-05 recombinants per viable cell
5 | CGGAACCGTATTGCAGCAGCTTTATCATCTGCCGCTGGACGGCGCACAAA (ssDNA) [galK 50-mer oligo] | 0.0004 recombinants per viable cell
